Assay [1] deals with WNV IS98-ST1 M-I36F/A43G double mutant virions (E protein at the surface, M protein I36F and A43G) (West Nile virus, strain IS98-ST1). Nature of the assay: direct ELISA, coated UV-inactivated virus produced in Vero cells. In general terms: In an ELISA, binding on a coated surface is turned into a signal by an enzyme label.
For assay [2] the target is unchanged. Nature of the assay: indirect non-competitive ELISA, Vero-produced virus captured by polyclonal anti-WNV, HRP-conjugated 4G2.

In turn, “Monoclonal antibody (mAb) 4G2 anti-Flavivirus E protein” had a fold decrease in recognition compared to wild-type and M-A43G in assay [1] of 1.2 fold. The substance further registered a fold decrease in recognition in assay [2] of 1.2 to 2 fold.

(Values after US20230167415A1.)
